For this test, the target named is human recombinant adrenomedullin receptor (CRLR+RAMP3) (human).

In US20210285949A1 one finds IC50 (read off the curve); cAMP HTRF assay, agonist 5.63 nM hADM data, which are given here for one substance.

“antagonist (human ADM 22-52) (from UniProt P35318) (peptide)”: the IC50 (read off the curve); cAMP HTRF assay, agonist 5.63 nM hADM is 200 nM.
